Data taken from article PMC7817050 (PLoS Pathogens, 2021).

Columns and labels:
[1] = target: the molecule itself; experiment: crystal structure; gB ectodomain; 0.1 M Na acetate pH 4.6, 20% PEG 400, 6% ethylene glycol, room temperature vapor diffusion
[2] = target: the molecule itself; experiment: cryo-EM structure; native, full-length gB without antibody, in Amphipol 8-35, TBS pH7.4; 300kV Titan Krios; C3 symmetry imposed
[3] = target: T1, native, full-length VZV gB purified from VZV infected MeWo cells (varicella-zoster virus (parental Oka …, UniProt Q4JR05, N-linked glycosylation (sites in S4 Table))); experiment: cryo-EM structure; Fab fragments added in molar excess to native, full-length gB in TBS pH7.4 with Amphipol 8-35, overnight at +4°C; complexes purified on Superose-6 in TBS pH7.4; 200kV F20 microscope; details: both partners purified
T1 construct: VZV glycoprotein B (ORF31), parental Oka strain, residues up to 931; 71-residue signal peptide; native gB is cleaved by furin at 491RSRR494 into two fragments; residues 115-736 resolved in the cryo-EM structure; Held in Amphipol 8-35; also called glycoprotein B; native, full-length gB; not shown: V5, C-terminal, cleaved

[4] = target: T2, VZV gB wild type expressed from pCAGGS-gB in CHO-DSP1 cells (varicella-zoster virus, UniProt Q4JR05); experiment: western blot; reducing, denaturing SDS-PAGE of anti-V5 immunoprecipitates from transfected CHO-DSP1 cells, blot probed with mAb 93k; details: one partner purified
T2 construct: VZV glycoprotein B (ORF31) expressed from pCAGGS-gB; detected by an antiserum to residues 833-846 of the cytoplasmic region; also called WT gB; gB-WT; source: CHO-DSP1, transfected (pCAGGS-gB), in lysate; also on fixed transfected cells

B1: VZV gB ectodomain used for X-ray crystallography (domain or fragment, varicella-zoster virus (Oka strain), UniProt Q4JR05 72-736, looked up)
chain: VSPSSFYESLQVEPTQSEDITRSAHLGDGDEIREAIHKSQDAETKPTFYVCPPPTGSTIVRLEPPRTCPDYHLGKNFTEGIAVVYKENIAAYKFKATVYYKDVIVSTAGAGSSGTQITNRYADRVPIPVSEITDTIDKFGKCSSKATYVRNNHKVEAFNEDKNPQDMPLIASKYNSVGSKAWHTTNDTYMVAGTPGTYRTGTSVNCIIEEVEARSIFPYDSFGLSTGDIIYMSPFFGLRDGAYREHSNYAMDRFHQFEGYRQRDLDTRALLEPAARNFLVTPHLTVGWNWKPKRTEVCSLVKWREVEDVVRDEYAHNFRFTMKTLSTTFISETNEFNLNQIHLSQCVKEEARAIINRIYTTRYNSSHVRTGDIQTYLARGGFVVVFQPLLSNSLARLYLQELVRENTNHSPQKHPTRNTGSGGSVPVELRANRTITTTSSVEFAMLQFTYDHIQEHVNEMLARISSSWCQLQNRERALWSGLFPINPSALASTILDQRVKARILGDVISVSNCPELGSDTRIILQNSMRVSGSTTRCYSRPLISIVSLNGSGTVEGQLGTDNELIMSRDLLEPCVANHKRYFLFGHHYVYYEDYRYVREIAVHDVGMISTYVDLNLTLLKDREFMPLQVYTRDELRDTGLLDYSEIQRRNQMHSLRFYDIDKVVQ
modifications: N-linked glycosylation (sites in S4 Table)
notes: VZV glycoprotein B (ORF31), Oka strain, codon-modified; residues 72-736, without the 71 amino acid signal peptide; residues 115-736 resolved in the crystal; also called truncated gB; truncated VZV gB; source: HEK293 GnTI- cells, transiently transfected (pCMV-III), purified (Ni-NTA, ion-exchange, Superdex 200)
[1]
  stoichiometry N: 3

B2: native, full-length VZV gB purified from VZV infected MeWo cells (natural protein)
chain: VSPSSFYESLQVEPTQSEDITRSAHLGDGDEIREAIHKSQDAETKPTFYVCPPPTGSTIVRLEPPRTCPDYHLGKNFTEGIAVVYKENIAAYKFKATVYYKDVIVSTAWAGSSYTQITNRYADRVPIPVSEITDTIDKFGKCSSKATYVRNNHKVEAFNEDKNPQDMPLIASKYNSVGSKAWHTTNDTYMVAGTPGTYRTGTSVNCIIEEVEARSIFPYDSFGLSTGDIIYMSPFFGLRDGAYREHSNYAMDRFHQFEGYRQRDLDTRALLEPAARNFLVTPHLTVGWNWKPKRTEVCSLVKWREVEDVVRDEYAHNFRFTMKTLSTTFISETNEFNLNQIHLSQCVKEEARAIINRIYTTRYNSSHVRTGDIQTYLARGGFVVVFQPLLSNSLARLYLQELVRENTNHSPQKHPTRNTRSRRSVPVELRANRTITTTSSVEFAMLQFTYDHIQEHVNEMLARISSSWCQLQNRERALWSGLFPINPSALASTILDQRVKARILGDVISVSNCPELGSDTRIILQNSMRVSGSTTRCYSRPLISIVSLNGSGTVEGQLGTDNELIMSRDLLEPCVANHKRYFLFGHHYVYYEDYRYVREIAVHDVGMISTYVDLNLTLLKDREFMPLQVYTRDELRDTGLLDYSEIQRRNQMHSLRFYDIDKVVQYDSGTAIMQGMAQFFQGLGTAGQAVGHVVLGATGALLSTVHGFTTFLSNPFGALAVGLLVLAGLVAAFFAYRYVLKLKTSPMKALYPLTTKGLKQLPEGMDPFAEKPNATDTPIEEIGDSQNTEPSVNSGFDPDKFREAQEMIKYMTLVSAAERQESKARKKNKTSALLTSRLTGLALRNRRGYSRVRTENVTGV
modifications: N-linked glycosylation (sites in S4 Table)
notes: VZV glycoprotein B (ORF31), parental Oka strain, residues up to 931; 71-residue signal peptide; native gB is cleaved by furin at 491RSRR494 into two fragments; residues 115-736 resolved in the cryo-EM structure; Held in Amphipol 8-35; also called glycoprotein B; native, full-length gB; not shown: V5, C-terminal, cleaved
[2]
  stoichiometry N: 3

B3: Fab fragment of the neutralizing human mAb 93k (Fab, V domains shown)
VH: QVQLVQSGAEVKKPGSSVKVSCKASGGTFSNFAISWVRQAPGQGLEWMGRIMPLFVTSTYAQKFQGRVTISADASTSTAYMELSSLRSDDTAMYYCARDITAPGAAPTPLNFYGMDVWGQGTTVTVSS
VL: DIQMTQSPSTLSASVGDRVTITCRASQTISTWLAWYQQTPRKAPKLMIYKASILENGVPSRFSGSGSGTEFTLTISSLQPEDFATYYCQQYKSYPWTFGQGTKVEI
notes: map of gB-93k deposited here as EMD-22519; I53 of the VL chain is named; also called 93k Fab
[3]
  binding result: binds

B4: human neutralizing monoclonal antibody 93k (antibody, V domains shown)
VH: B3 VH
VL: B3 VL
notes: variable part as the heavy chain of m12; as the light chain of m12; Human IgG (detected with anti-human IgG); also called mAb 93k
[4]
  binding result: binds
